According to patent publication EP2216341A1, “Transferrin variants and conjugates” (Novozymes Biopharma UK Limited, priority 2009, dated 2010):

Molecular target: transferrin receptors on human K562 erythroleukemic cells
Assay: cell-based or functional assay

Row | Specific iron uptake Bmax (fmol 55Fe/10^6 cells x 25min) | Specific iron uptake Kd (nM transferrin) [nM] | Total Iron Uptake Bmax (fmol 55Fe/10^6 cells x 25min) | Substance
1 | 2430 | 154 | 3290 | Fluorescein conjugated thiotransferrin (S28C, S415A, T613A) (ligand)
2 | – | – | 4250 | Human plasma-derived apo-transferrin (Calbiochem 616419) (from UniProt P02787 20-698) (ligand)
3 | 3250 | 189 | 4160 | Fluorescein conjugated thiotransferrin (S415C, T613A) (ligand)
4 | 2360 | 203 | 3690 | recombinant thiotransferrin (S415C, T613A) (ligand)
5 | 2830 | 130 | 4050 | recombinant transferrin (S415A, T613A) (ligand)
6 | 3020 | 209 | 4210 | recombinant thiotransferrin (S28C, S415A, T613A) (ligand)
